# Assay results published in publication doi:10.1101/660928.
# pKd: −log10 of the molar value.
# Test system: Rv1626 D65E (phosphomimic, Rv1626~P) (Mycobacterium tuberculosis)
# Assay: EMSA
substance,measurement,value
5' UTR of Mtb Rv1936 (category 1 ANTAR RNA),pKd,4.82
